In patent US20220396632A1 (VERSEAU THERAPEUTICS, published 2022):

Legend:
[1] = target: T1, Biotin sY48 PSGL-1(42-62) peptide (human, sulfotyrosine at Y48; C-terminal Lys-biotin); assay: ELISA, plate-bound mAb captures biotin peptide
T1 construct: also called sY48S
T1 peptide: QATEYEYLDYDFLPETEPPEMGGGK
Procedure: (§1) Two ELISA methods were performed. One procedure detected mAb binding to its plate-immobilized target and the other measured the immobilized antibody's ability to capture biotinylated PSGL-1₄₂₋₆₂. […] The plate was incubated for 45 min at 37° C. Plates were washed 3 times with wash buffer (PBS containing 0.05% tween 20, pH 7.4) and a single concentration (2 to 500 nM) or serially diluted (0.002-100 nM) anti-PSGL-1 mAb was added (25 ul/well) in assay buffer into appropriate wells. The plate was incubated for 45 min at 37° C., washed 3 times, and an appropriate HRP-conjugated secondary antibody added (25 ul/well) (HRP goat anti-mouse or anti-human IgG). After 45 min incubation at 37° C., the plate was washed, and antibody bound to plate-immobilized target was determined at A450 nm using HRP substrate (3,3′,5,5′-etramethylbenzidine (TMB)). For each antibody, duplicate values were averaged and assay background was subtracted. Except for the following, ELISAs involving plate-immobilized mAb capturing of biotinylated PSGL-1₄₂₋₆₂ peptides was performed in the same manner as described above: 3 ug/mL/25 ul per well of mAb was coated directly onto microtiter plate wells; biotinylated unmodified or sulfotyrosine PSGL-1₄₂₋₆₂ was serially diluted (3 nM-3 uM) into appropriate wells, and antibody-bound peptide was detected using HRP-streptavidin (Jackson Immunoresearch, Cat. #016-030-084).

[2] = target: T2, Biotin sY46 PSGL-1(42-62) peptide (human, sulfotyrosine at Y46; C-terminal Lys-biotin); assay: capture ELISA; against 3 x sY peptide
T2 peptide: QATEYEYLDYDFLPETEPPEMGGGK
Procedure: as §1

[3] = target: T1, Biotin sY48 PSGL-1(42-62) peptide; assay: capture ELISA; against 3 x sY peptide
Procedure: as §1

[4] = target: T3, Biotin Y46,48,51(SO3) PSGL-1(42-62) peptide (human, sulfotyrosine at Y46, Y48 and Y51; C-terminal Lys-biotin); assay: capture ELISA; against 3 x sY peptide
T3 construct: also called fully sulfated N-terminal PSGL-1 peptide
T3 peptide: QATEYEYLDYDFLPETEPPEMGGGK
Procedure: as §1

[5] = target: T4, Biotin sY51 PSGL-1(42-62) peptide (human, sulfotyrosine at Y51; C-terminal Lys-biotin); assay: capture ELISA; against 3 x sY peptide
T4 construct: also called Y51(SO3) PSGL-1(42-62)
T4 peptide: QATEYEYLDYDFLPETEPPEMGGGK
Procedure: as §1

[6] = target: T5, Biotin PSGL-1(42-62) peptide, unmodified (human, C-terminal Lys-biotin); assay: ELISA, plate-bound target
T5 construct: Residues 42-62 followed by GGGK-biotin; also called WT; wild-type
T5 peptide: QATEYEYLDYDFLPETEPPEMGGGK
Procedure: as §1

[7] = target: T3, Biotin Y46,48,51(SO3) PSGL-1(42-62) …; assay: ELISA, plate-bound target
Procedure: as §1

[8] = target: T6, Human complement C4 protein (Millipore Sigma, Cat. 204886) (human, UniProt P0C0L4 20-675; P0C0L4 680-1446; P0C0L4 1454-1744, limits assumed, natural sulfotyrosines); assay: ELISA, 50 nM mAb on plate-bound protein
T6 construct: mature
T6 sequence (P0C0L4 20-675 limits assumed, form in doubt, chain 1 of 3): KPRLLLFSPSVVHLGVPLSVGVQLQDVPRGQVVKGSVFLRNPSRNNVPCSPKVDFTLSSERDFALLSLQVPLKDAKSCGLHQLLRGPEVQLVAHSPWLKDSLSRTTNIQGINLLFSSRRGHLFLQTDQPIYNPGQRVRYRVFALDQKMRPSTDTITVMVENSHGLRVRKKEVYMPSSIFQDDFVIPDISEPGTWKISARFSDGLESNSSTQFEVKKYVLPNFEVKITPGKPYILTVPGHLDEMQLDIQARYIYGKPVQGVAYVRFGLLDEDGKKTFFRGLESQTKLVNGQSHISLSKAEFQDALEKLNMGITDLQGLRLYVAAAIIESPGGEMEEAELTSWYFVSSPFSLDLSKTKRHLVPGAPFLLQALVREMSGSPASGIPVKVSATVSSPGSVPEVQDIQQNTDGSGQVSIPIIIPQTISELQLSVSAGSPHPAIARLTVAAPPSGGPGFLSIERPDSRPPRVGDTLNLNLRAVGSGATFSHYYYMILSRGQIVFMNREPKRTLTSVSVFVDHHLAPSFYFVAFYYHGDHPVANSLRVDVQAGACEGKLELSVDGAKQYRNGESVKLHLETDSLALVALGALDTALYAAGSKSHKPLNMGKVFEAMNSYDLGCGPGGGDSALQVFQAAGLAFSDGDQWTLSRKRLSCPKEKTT
T6 sequence (P0C0L4 680-1446 limits assumed, form in doubt, chain 2 of 3): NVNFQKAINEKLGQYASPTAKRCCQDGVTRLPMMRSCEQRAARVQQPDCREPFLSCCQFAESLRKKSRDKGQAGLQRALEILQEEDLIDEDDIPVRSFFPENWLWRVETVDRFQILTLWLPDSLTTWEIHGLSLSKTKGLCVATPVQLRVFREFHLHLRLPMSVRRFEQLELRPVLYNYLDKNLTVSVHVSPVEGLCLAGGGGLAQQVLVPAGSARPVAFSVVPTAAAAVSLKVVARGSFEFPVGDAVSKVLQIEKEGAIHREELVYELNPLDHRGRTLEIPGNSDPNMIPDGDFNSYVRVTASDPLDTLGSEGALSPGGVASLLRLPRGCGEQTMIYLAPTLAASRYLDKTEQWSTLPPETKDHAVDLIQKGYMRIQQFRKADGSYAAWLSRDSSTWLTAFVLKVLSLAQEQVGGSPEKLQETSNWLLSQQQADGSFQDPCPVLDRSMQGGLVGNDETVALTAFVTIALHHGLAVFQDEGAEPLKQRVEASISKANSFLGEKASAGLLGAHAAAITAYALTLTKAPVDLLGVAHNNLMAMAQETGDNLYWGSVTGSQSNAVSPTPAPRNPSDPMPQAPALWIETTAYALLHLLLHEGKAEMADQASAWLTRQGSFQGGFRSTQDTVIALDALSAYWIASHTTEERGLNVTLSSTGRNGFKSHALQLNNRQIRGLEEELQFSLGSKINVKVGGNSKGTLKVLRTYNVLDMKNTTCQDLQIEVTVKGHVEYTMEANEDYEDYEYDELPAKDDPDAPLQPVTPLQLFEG
T6 sequence (P0C0L4 1454-1744 limits assumed, form in doubt, chain 3 of 3): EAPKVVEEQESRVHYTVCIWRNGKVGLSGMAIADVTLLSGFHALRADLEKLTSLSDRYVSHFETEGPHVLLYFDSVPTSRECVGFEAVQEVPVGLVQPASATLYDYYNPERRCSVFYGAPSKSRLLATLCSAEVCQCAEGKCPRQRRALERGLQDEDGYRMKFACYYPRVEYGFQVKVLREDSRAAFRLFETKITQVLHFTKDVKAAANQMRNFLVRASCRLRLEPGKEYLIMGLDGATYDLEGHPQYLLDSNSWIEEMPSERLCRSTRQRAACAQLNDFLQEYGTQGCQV
Procedure: Recombinant PSGL-1-hFc1 chimera protein consisting of PSGL-1's extracellular domain (ECD) served as a positive control. […] Primary antibody was added (25 ul per well) in duplicate at 50 nM in assay buffer (blocking buffer containing 0.05% Tween®20) into test and control (just blocked) wells and the plate incubated for 45 min at 37° C.

EC50 [1]: ~3000 nM | EC50/EC50 3x(SO3)Y [2]: ~2000 fold | EC50/EC50 3x(SO3)Y [3]: ~2000 fold | EC50/EC50 3x(SO3)Y [4]: 1 fold | EC50/EC50 3x(SO3)Y [5]: ~36 fold | EC50 [6]: > 500 nM | EC50 [7]: 0.13 nM | % of binding to PSGL-1(ECD)-hFc1 [8]: ≤ 10%
B1: 10F01 (antibody, IgG4, V domains shown)
VH: EVQLVQSGGGLVQPGGSLRLSCAASGFTFSSYAMSWVRQAPGKGLEWVSALRGGDGGTYHADSVKGRFTISGDSSKNTLYLQMNSLRAEDTAVYYCARRMVGAAYAFDIWGQGTMVTVSS
VL: LPVLTQPHSVSESPGKTVTISCTRSSGSIADNFVQWYRQRPGSAPTTVIYEGDQRPSGVPGRFSGSIDSSSNSASLTISGLQTDDEADYYCQSFDSYNRRTHVVFGGGTKLTVL
